Assay: yeast display, Sf9 membrane polyspecificity reagent, FACS + sequencing; frameworks hold sequencing errors
Method in brief: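 Polyreactivity labels are assigned by the sorting gate from which each nanobody was recovered. The gates were low and high (top ~1%), set on anti-HA fluorescence for expression and streptavidin fluorescence for reagent binding. Before sorting, galactose-induced (36–48 hours) yeast display cells were stained for 1 hour at 4 °C with 10% biotinylated, detergent-solubilized Sf9 membrane reagent.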
In the case of “QVQLVESGGGLVQAGGSLRLSCAASGRTFGYYAMGWYRQAPGKERELVAAISSGGGTYYADSVKGRFTISRDNAKNTVYLLMNSLKPEDTAVYYCAATGWVYWGQFDYWGQGTQVTVSS”, the “polyreactivity (PSR sort gate)” value is reported as “low polyreactivity”.
With “QVQLVESGGGLVQAGGSLRLSCAASGSTFRYYAMGWYRQAPGKERELVAAISGSGGRTYYADSVKGRFTISRDNAKNTVYLQMNSLKPEDTAVYYCAAQCGYYDSAYGSWGQGTQVTVSS” the “polyreactivity (PSR sort gate)” value was “high polyreactivity”.
For “QVQLVESGGGLVQAGGSLRLSCAASGITFQRYAMGWYRQAPGKERELVAAISTNGGTTYYADSVKGRFTISRDNAKNTVYLQMNSLKPEDTAVYFCNAESGYVYYIRYNYWGQGTQVTVSS”, the “polyreactivity (PSR sort gate)” value was “high polyreactivity”.
For “QVQLVESGGGLVPAGGSLRLSCAASGFTFTRYAMGWYRQARGKERELVAAISWNGGSTYYADSVKGRFTISRDNAKKTVYLQMNSLKPEDTAVYYCAVRFKYQWSNFGYWGQGTQVTVSS”, the “polyreactivity (PSR sort gate)” value was “high polyreactivity”.
With “QVQLVESGGGLVQAGGSLRLSCAASGSIFKEYAMGWYRQAPGKERELVATISWSGGSTYYADSVKGRFTISRDNAKNTVYLQMNSLKPEDTAVYYCNKRTPWWYVVRYDYWGQGTQVTVSS” the “polyreactivity (PSR sort gate)” value was “high polyreactivity”.
In the case of “QVQLVESGGGLVQAGGSHPLSCAASGRTFGHNAMRSYRQAPGKERELVAAITRSGGRTFYADSVKGRFTISRDNAMNTVYLQMNSLKPEDTAVFYCATDYYRYRDYAYYWLDYNYWGQGTQVTVSS”, the “polyreactivity (PSR sort gate)” value is reported as “high polyreactivity”.
For “QVQLVESGGGLVQAGGSLRLSCAASGRIFPSYAMGRYRQAPGKERELVAAISRSGGRTYYADSVKGRFTISRDNAKNTVYFQMNSLKPEDTAVYYCARYGPYQSSYHYDYWGQGSQVTVSS”, the “polyreactivity (PSR sort gate)” value was “high polyreactivity”.
For “QVQLVESGGGLVQAGGSLRLSCAASGLTFVDYAMGWYRQAPGKERELVADYYFQRWFYGLRRLCEGALHNFTRQCQEYRNLQMNSLKPEDTAVYYCNTDGPTVAYSEYYYWGQGTQVTVSS”, the “polyreactivity (PSR sort gate)” value was “low polyreactivity”.
For “QVQLVESGGGLVQAGGSLRLSCAASLSIFYVNAMGWYRQAPGKESELVAAISFSGGTTYYADSVKGRFTISRDNAKNTVYLQMNSLKPEDTAVYYCNTPSSREMDYWGQGTQVTVSS”, the “polyreactivity (PSR sort gate)” value was “low polyreactivity”.
In the case of “QVQLVESGGGLVQAGGSLRLSCAASVSIFETYAMGWSRQAPGKERELDAAISSSGGTTYYADSVKGRFTISRDTAKNTVYLQMNSLKPEDTAVYYCAARSAATHWTFLFYYDFDYWGQGTQVTVSS”, the “polyreactivity (PSR sort gate)” value is reported as “low polyreactivity”.
For “QVQLVESGGGLVQAGGSLRLSCAASGITLSRNAMGWYRQAPGKERELVAAITWRTDRTYYADSVKGRFTISRDNAKNTVYLQMNSLKPEDTAVYYCAARTTVSSARYDYWGQGTQVTVSS”, the “polyreactivity (PSR sort gate)” value was “high polyreactivity”.
With “QFQLVESGGGLVQAGGSLRLSCAASGSTFVFYAMGWYRQAPGKQRELVATISTGGSTYADSVKGRFTISRDNAKNTVYLQMNSLKPEDTAVYYCAADSLFGHYDYSGQGTQVTVSS” the “polyreactivity (PSR sort gate)” value was “low polyreactivity”.
With “QVQLVESGGGLDQAGGSLRLSCAASGSIFRYYAMGWYRQAPGKEREFVASITYRGGRTYYADSVKGRFTISRDNAKNTVYLQMNSLKPEDTAVYYCAARTRAGAWTSKYHDYWGQGTQVTVSS” the “polyreactivity (PSR sort gate)” value was “high polyreactivity”.
For “QVQLVESGGGLVQAGGSLRLSCAASGRIYIGNAMGWYRQAPGKERELVAAISKRGGSTYYADSVKGRFTISRDNAKNTVYLQMKSLKAEDTAVYYCIKESLYREFDYLGQGTQVTVSS”, the “polyreactivity (PSR sort gate)” value was “low polyreactivity”.
With “QVQLVESGGGLVQAGGSLRLSCDASGSIFRYYGMGWYRQAPGKEREMVAVISYRGGSTYYADSVKGRFTISRDNAKNTVYLQMNSLKPEDTAVYYCIADDPSKLGYEHDYWGQGTQVTVSS” the “polyreactivity (PSR sort gate)” value was “low polyreactivity”.
With “QVQLVESGGGLVQAGGSLRLSCAASGSTYTRYAMGLYRQAPGKEMELVATINVSGDRTYYADSVKGRFTISRDNAKNTVYLQMNSLKPEDTAVYYCNKYRYQWPYRRFDYWGQGTQVTVSS” the “polyreactivity (PSR sort gate)” value was “high polyreactivity”.
With “QVQLVESGGGLVQAGGSLRLSCAASGSILRQYAMGWYRQAPGKERELVATITGDGSTNYADSVKGRFTISRDNAKNTVYLQMNSLKPEDTAVYYCNTALTYPYPNVEDLVYGFKLDYWGQGTQVTVSS” the “polyreactivity (PSR sort gate)” value was “low polyreactivity”.
In the case of “QVQLVESGGGLDQAGGSLRLSCAASGSIFDSNALGWYRQAPGKERELVASITSSGGSTYYADSVKGRFTISRDKAKNTVYLQMNSLKPEDTAVYYCAADSYKTKHDAYDYCGQGTQVTVSS”, the “polyreactivity (PSR sort gate)” value is reported as “high polyreactivity”.
In the case of “QVQHVESGGGLVQAGGRLRLRCAASGSTFDDNAKGWYIHAPGKERELVAGISDGDDSTNYADSVKGRFTISRDNAKNTVYFQMNRLKPEDTAVYYCNARYVRTYGVRFGYDYWGQGTQLTVSS”, the “polyreactivity (PSR sort gate)” value is reported as “low polyreactivity”.
With “QVQLVESGGGLVQAGGSLRLSCAASGSIFSGYTMGWYRQAPGKERELVAAISSDGSTTYADSVKGRFTISRDNAKNTVYLQMNSLKPEDTAVYYCAAYPYWDGSYGGYDYWGQGTQVTVSS” the “polyreactivity (PSR sort gate)” value was “low polyreactivity”.
With “QVQLVESGGGLVQAGASLRLSCAASGRTLKVYAMGWYRQAPGKERELDAAINNGGSTNYADSVKGRFTISRDNAKNTVYLQMNSLKPEDTAVYYCNAVYYARYRKYTYYYWGQGTQVTVSS” the “polyreactivity (PSR sort gate)” value was “high polyreactivity”.
In the case of “QVQLVESGGGLVQAGGSLRLSCAASGYTFYKYAMGWYRQAPGKEREFVADITQSGGSTYYADSVKGRFTISRDNAKNTVYLEMNSLKPEDTAVYYCNAAYSYRPDPKGYDYWGQGTQVTVSS”, the “polyreactivity (PSR sort gate)” value is reported as “low polyreactivity”.
With “QVQLVESGGGLVQAGGSLRLSCAASGRIYSYYAMGWYRQAPGKERELVAGIRSGGSTNYADSVKGRFTISRDNAKNTVYLQMNSLKPEDTAVYYCAARWTRWTSKRFEYWGQGTQVTVSS” the “polyreactivity (PSR sort gate)” value was “high polyreactivity”.
With “QVQLVESGGGLVQAGGSLRLSCAASGRTFRWYTMGWYRQAPGKERELVAAITSRGGSTYADSVKGRFTISRDNAKNTVYLQMNSMKPEDTAVYYCNAARTYQYDYWGQGTQVTVSS” the “polyreactivity (PSR sort gate)” value was “high polyreactivity”.
In the case of “QVQLVESGGGLLQAGGSLRLSCAASGFIFGRNAMGWYRQAPGKERELVAAITRSGGSTYYADSVKGRFTISRDNAKNTVYLQMISLKTEDTAVYYCAKGDFYWGVFRVGIRDDYWGQGTQVNVSS”, the “polyreactivity (PSR sort gate)” value is reported as “high polyreactivity”.
With “QVQLVESGGGLVQAGGSLRLSCAASGRTFGGNAIGWYRQAPGKERELVAAISSGARTNYADSVKGRFTISRDNAKNTVYLQMNSLKPEDNAVYYCAAGYPYSYRDYYYWVQGTQVTVSS” the “polyreactivity (PSR sort gate)” value was “high polyreactivity”.
In the case of “QVQLVESGGGLVQAGGSLRLSCAASGRTFKYYAMGWYRQAPGKERELVATITYSGGSTYYADSVKGRFTISRDNAKNTVYLQMNSLKPEDTAVYYCNKVIFLSQSSYSFHYAYDYWGQGTQVTVSS”, the “polyreactivity (PSR sort gate)” value is reported as “high polyreactivity”.
For “QVQLVESGGGLVQAGGRLRLSCAASGSTFKSYVMGGSRQAPGKERELVAAISSGDSTYYADSVKGRFTISRDNAKNTVNLQMNSLKPEDTAVYYCAADPGYTVEPWEDDYWGQGTQVTVSS”, the “polyreactivity (PSR sort gate)” value was “low polyreactivity”.
In the case of “QVQLVESGGGLVQAGGSLRLSCAASGRTFSRYAMGWYRQAPGKEREFVAAITWSSGGTYYADSVKGRFTISRDNAKNTVYLQMNSLKPEDTAVYYCNYLRSRYYQDYNYWGQGTQVTVSS”, the “polyreactivity (PSR sort gate)” value is reported as “high polyreactivity”.
With “QVQLVESGGGLVQAGGSLRLSCASSGSTFRLYAMGWYRQAPGKERELVATISTSGGRTYYADSVKGRLTISRDNAKNTVYLQMNSLKPEDTAVYYCAAYRGTLLTAYDYWGQGTQVTVSS” the “polyreactivity (PSR sort gate)” value was “low polyreactivity”.
With “QVQLVESGGGLVQAGGSLRLSCAASGRIFVGYAMGWYRQAPGKERELVAAITKSGGRTYYADSVKGRFTISRDNAKNTVYLQMNSLKPEDTAVYYCAVLNSKWNEYDYWGQGNQVTVSS” the “polyreactivity (PSR sort gate)” value was “high polyreactivity”.
With “QVQLVESGGGLVQAGGSLRLSCAASGRIFSGYAMGWYRQAPGKERELVAAITSVGSTNYADSVKGRFTISRDNAKYTVYLQMNSLKPEDTAVYYCAKDTGQGYYWGQGTQVTVSS” the “polyreactivity (PSR sort gate)” value was “high polyreactivity”.
In the case of “QVQLVESGGGLVQAGGSLRLSCAASGSIFGTYAMGWYRQAPGKAREFVADISAIGTSTYYADSVKGRFTISRDNAKNTVYLQMNSLKPEDTAVYYCAAESFDTVEYDYWGQGTQVTVSS”, the “polyreactivity (PSR sort gate)” value is reported as “low polyreactivity”.
For “QVQLVESGGGLVQAGGSLRLSCAATGSIFGKYAMGWSRQAPGKERELVAVITWSGGSTYYADSVKGRFTISRDNAKNTVYLQMNSLKPEDTAVYYCNAANTGSQDYQSIGYNFNYWGQGTQVTVSS”, the “polyreactivity (PSR sort gate)” value was “low polyreactivity”.
In the case of “QFQLVESGRGIVQAGGSLRLSCAASGFTFGPSAMVWYRQAPGKERELVAVISRSGGRTYYADSVKGRFTISRDNAKNTVYLQMNSLKPEDTAVYYCAAAGYGNDGYDYWGQGTQVTVSS”, the “polyreactivity (PSR sort gate)” value is reported as “high polyreactivity”.
For “QVQLVESGGGLVQAGGSLRLSCAASGRTFNRYAMGRYRQAPGKERELVAVITSDGRRNYADSVKGRFTISRDKAKNTVYFQINSLKPEDTAVSYCNKRSALSFVYDFDYWGQGTQVTVSS”, the “polyreactivity (PSR sort gate)” value was “low polyreactivity”.
With “QVQLVESGGGLVQAGGSLSLSCAASGGIFARNVMGWYRQAPGKERELVADISGSGGSTYYADSVKGRFTISRDNAKNTVYLQMNSLKPEDTAVYYCAARTPGVSVYKDGYWGQGTQVTVSS” the “polyreactivity (PSR sort gate)” value was “low polyreactivity”.
With “QVQLVESGGGLVQAGGSLRLSCAASGSIFSWYAMGWYRQAPGKERELVAAIRRGGSTYYADSVKGRFTISRDNAKNTVYLQMNSLKPEDTAVYYCAARVYTAASRGRGDYWGQGTQVTVSS” the “polyreactivity (PSR sort gate)” value was “low polyreactivity”.
In the case of “QVQLVESGGGLVQAGGSLRLSCAASGGIFYHNAMGWYRQAPGKERELVAAISGRGGRTYYADSVKGRFTISRDNAKNTVYLQMNSLKPEDTAVYYCDADQYKDFDYWGQGTQVTVSS”, the “polyreactivity (PSR sort gate)” value is reported as “low polyreactivity”.
In the case of “QVHLVESGGGLVQAGGSLRLSCAASGGIFYPNAMGWYRQAPGKERELVAAISSGGGSTYYADSVKGRFTISRDNAKNTVYLQMNSLKPEDTAVYYCAASAYSLKSDVEYDYWGQGTLVTVSS”, the “polyreactivity (PSR sort gate)” value is reported as “low polyreactivity”.
For “QVQLVESGGGLVQAGGSLRLSCAASGRIFGTYAMGWYRQAPRKERELVAAITQSARSTYYADSVKGRFTISRDNAKNTVYLQMNSLKPEDTAVYYCAAVGYYTKRRFGYWGQGTQVTVSS”, the “polyreactivity (PSR sort gate)” value was “high polyreactivity”.

From the nanobody polyreactivity screen of Harvey et al. (2022)
